Measured values published in the Immune Epitope Database (IEDB).

Columns and labels:
HLA-A*02:01 [1] = assay: IEDB peptide-MHC binding, purified MHC/competitive/fluorescence; filed as Kd, often an IC50 or EC50 that approximates it; ≥ and ≤ were set here for values at or beyond the usual limits of such assays; details: source organism: Human immunodeficiency virus 1
HLA-A*26:02 = assay: as above; details: source organism: Human immunodeficiency virus 1
HLA-A*68:02 = assay: as above; details: source organism: Human immunodeficiency virus 1
HLA-B*08:03 = assay: as above; details: source organism: Human immunodeficiency virus 1
HLA-B*15:01 [2] = assay: as above; details: source organism: Human immunodeficiency virus 1
HLA-B*39:01 = assay: as above; details: source organism: Human immunodeficiency virus 1
HLA-A*02:03 = assay: as above; details: source organism: Human immunodeficiency virus 1
HLA-A*02:06 [3] = assay: as above; details: source organism: Human immunodeficiency virus 1
HLA-A*26:01 [4] = assay: as above; details: source organism: Human immunodeficiency virus 1
HLA-A*30:01 = assay: as above
HLA-B*07:02 = assay: as above
HLA-B*08:02 = assay: as above; details: source organism: Human immunodeficiency virus 1
HLA-B*15:09 = assay: as above; details: source organism: Human immunodeficiency virus 1
HLA-A*02:01 [5] = assay: IEDB peptide-MHC binding, purified MHC/direct/fluorescence; filed as Kd, often an IC50 or EC50 that approximates it; ≥ and ≤ were set here for values at or beyond the usual limits of such assays; details: source organism: Vibrio parahaemolyticus AQ3810
HLA-A*02:06 [6] = assay: as above; details: source organism: Vibrio parahaemolyticus AQ3810
HLA-A*02:19 = assay: as above; details: source organism: Vibrio parahaemolyticus AQ3810
HLA-A*03:01 = assay: as above; details: source organism: Vibrio parahaemolyticus AQ3810
HLA-A*23:01 = assay: as above; details: source organism: Vibrio parahaemolyticus AQ3810
HLA-A*24:03 = assay: as above; details: source organism: Vibrio parahaemolyticus AQ3810
HLA-A*26:01 [7] = assay: as above; details: source organism: Vibrio parahaemolyticus AQ3810
HLA-A*29:02 = assay: as above; details: source organism: Vibrio parahaemolyticus AQ3810
HLA-A*69:01 = assay: as above; details: source organism: Vibrio parahaemolyticus AQ3810
HLA-B*15:01 [8] = assay: as above; details: source organism: Vibrio parahaemolyticus AQ3810
HLA-B*15:17 = assay: as above; details: source organism: Vibrio parahaemolyticus AQ3810
HLA-B*18:01 = assay: as above; details: source organism: Vibrio parahaemolyticus AQ3810
HLA-B*27:03 = assay: as above; details: source organism: Vibrio parahaemolyticus AQ3810
HLA-B*46:01 = assay: as above; details: source organism: Vibrio parahaemolyticus AQ3810
HLA-B*51:01 = assay: as above; details: source organism: Vibrio parahaemolyticus AQ3810
HLA-B*57:01 = assay: as above; details: source organism: Vibrio parahaemolyticus AQ3810
HLA-A*01:01 = assay: IEDB peptide-MHC binding, purified MHC/competitive/fluorescence; filed as Kd, often an IC50 or EC50 that approximates it; ≥ and ≤ were set here for values at or beyond the usual limits of such assays; details: source organism: Vibrio parahaemolyticus AQ3810
HLA-A*11:01 = assay: as above; details: source organism: Vibrio parahaemolyticus AQ3810
HLA-A*30:02 = assay: as above; details: source organism: Vibrio parahaemolyticus AQ3810
HLA-A*66:01 = assay: as above; details: source organism: Vibrio parahaemolyticus AQ3810
HLA-B*08:01 = assay: as above; details: source organism: Vibrio parahaemolyticus AQ3810
HLA-B*14:02 = assay: as above; details: source organism: Vibrio parahaemolyticus AQ3810
HLA-B*27:05 = assay: as above; details: source organism: Vibrio parahaemolyticus AQ3810
HLA-B*40:01 = assay: as above; details: source organism: Vibrio parahaemolyticus AQ3810
HLA-B*44:02 = assay: as above; details: source organism: Vibrio parahaemolyticus AQ3810
HLA-B*53:01 = assay: as above; details: source organism: Vibrio parahaemolyticus AQ3810
HLA-B*58:01 = assay: as above; details: source organism: Vibrio parahaemolyticus AQ3810
[9] = source organism: Human immunodeficiency virus 1
[10] = source organism: Vibrio parahaemolyticus AQ3810

Question: What does the source list for EIKDTEEAL?
Answer: Kd (HLA-A*02:01 [1]): ≥ 20 µM; Kd (HLA-A*26:02): ≥ 20 µM; Kd (HLA-A*68:02): 0.183 µM; Kd (HLA-B*08:03): ≥ 20 µM; Kd (HLA-B*15:01 [2]): ≥ 20 µM; Kd (HLA-B*39:01): ≥ 20 µM

Question: For EVKSLFNTV, which Kd (HLA-A*02:01 [1]) is on record?
Answer: The Kd was at least 20 µM.

Question: What about the Kd (HLA-A*02:03) of the same sequence?
Answer: The Kd was at least 20 µM.

Question: And the Kd (HLA-A*02:06 [3])?
Answer: Its Kd is 0.0849 µM.

Question: What about the Kd (HLA-A*26:01 [4]) of the same sequence?
Answer: Its Kd is at least 20 µM.

Question: What about the Kd (HLA-A*26:02) of the same sequence?
Answer: Its Kd is 0.199 µM.

Question: What about the Kd (HLA-A*30:01; [9]) of the same sequence?
Answer: The Kd was at least 20 µM.

Question: What about the Kd (HLA-A*68:02) of the same sequence?
Answer: Its Kd is 0.0004 µM.

Question: What about the Kd (HLA-B*07:02; [9]) of the same sequence?
Answer: Its Kd is at least 20 µM.

Question: And the Kd (HLA-B*08:02)?
Answer: The Kd was at least 20 µM.

Question: And the Kd (HLA-B*15:09)?
Answer: The Kd was at least 20 µM.

Question: For HQFTSNPEV, which Kd (HLA-A*02:01 [5]) is on record?
Answer: Its Kd is 0.004 µM.

Question: And the Kd (HLA-A*02:06 [6])?
Answer: The Kd was 0.008 µM.

Question: And the Kd (HLA-A*02:19)?
Answer: Its Kd is at least 20 µM.

Question: And the Kd (HLA-A*03:01)?
Answer: The Kd was at least 20 µM.

Question: What about the Kd (HLA-A*23:01) of the same sequence?
Answer: Its Kd is at least 20 µM.

Question: What about the Kd (HLA-A*24:03) of the same sequence?
Answer: Its Kd is at least 20 µM.

Question: And the Kd (HLA-A*26:01 [7])?
Answer: The Kd was at least 20 µM.

Question: What about the Kd (HLA-A*29:02) of the same sequence?
Answer: The Kd was at least 20 µM.

Question: What about the Kd (HLA-A*69:01) of the same sequence?
Answer: Its Kd is at least 20 µM.

Question: What about the Kd (HLA-B*15:01 [8]) of the same sequence?
Answer: Its Kd is at least 20 µM.

Question: What about the Kd (HLA-B*15:17) of the same sequence?
Answer: Its Kd is at least 20 µM.

Question: And the Kd (HLA-B*18:01)?
Answer: The Kd was at least 20 µM.

Question: What about the Kd (HLA-B*27:03) of the same sequence?
Answer: Its Kd is at least 20 µM.

Question: What about the Kd (HLA-B*46:01) of the same sequence?
Answer: Its Kd is at least 20 µM.

Question: And the Kd (HLA-B*51:01)?
Answer: Its Kd is at least 20 µM.

Question: And the Kd (HLA-B*57:01)?
Answer: Its Kd is at least 20 µM.

Question: And the Kd (HLA-A*01:01)?
Answer: Its Kd is at least 5 µM.

Question: What about the Kd (HLA-A*11:01) of the same sequence?
Answer: The Kd was at least 5 µM.

Question: What about the Kd (HLA-A*30:01; [10]) of the same sequence?
Answer: Its Kd is at least 5 µM.

Question: And the Kd (HLA-A*30:02)?
Answer: The Kd was at least 5 µM.

Question: What about the Kd (HLA-A*66:01) of the same sequence?
Answer: The Kd was at least 5 µM.

Question: What about the Kd (HLA-B*07:02; [10]) of the same sequence?
Answer: Its Kd is at least 5 µM.

Question: And the Kd (HLA-B*08:01)?
Answer: The Kd was at least 5 µM.

Question: And the Kd (HLA-B*14:02)?
Answer: The Kd was at least 5 µM.

Question: And the Kd (HLA-B*27:05)?
Answer: Its Kd is at least 5 µM.

Question: What about the Kd (HLA-B*40:01) of the same sequence?
Answer: The Kd was 0.416 µM.

Question: What about the Kd (HLA-B*44:02) of the same sequence?
Answer: Its Kd is at least 5 µM.

Question: And the Kd (HLA-B*53:01)?
Answer: The Kd was at least 5 µM.

Question: What about the Kd (HLA-B*58:01) of the same sequence?
Answer: The Kd was at least 5 µM.
